Data reported in publication PMC1764428, “Secretion and properties of a hybrid Kluyveromyces lactis-Aspergillus niger β-galactosidase” (Microbial Cell Factories, 2006).

Substrate: O=[N+]([O-])c1ccccc1O[C@@H]1O[C@H](CO)[C@H](O)[C@H](O)[C@H]1O
Assay: o-nitrophenol release, Lineweaver-Burk
Assay type: biochemical, Kluyveromyces lactis
Settings: crude extract (30 μg protein); buffer Z with 1.6 mM MgSO4; ONPG 2-12 mM

B1: native K. lactis β-galactosidase (pSPGK1-LAC4) (Kluyveromyces lactis NRRL Y-1140) (protein)
chain: MSCLIPENLRNPKKVHENRLPTRAYYYDQDIFESLNGPWAFALFDAPLDAPDAKNLDWETAKKWSTISVPSHWELQEDWKYGKPIYTNVQYPIPIDIPNPPTVNPTGVYARTFELDSKSIESFEHRLRFEGVDNCYELYVNGQYVGFNKGSRNGAEFDIQKYVSEGENLVVVKVFKWSDSTYIEDQDQWWLSGIYRDVSLLKLPKKAHIEDVRVTTTFVDSQYQDAELSVKVDVQGSSYDHINFTLYEPEDGSKVYDASSLLNEENGNTTFSTKEFISFSTKKNEETAFKINVKAPEHWTAENPTLYKYQLDLIGSDGSVIQSIKHHVGFRQVELKDGNITVNGKDILFRGVNRHDHHPRFGRAVPLDFVVRDLILMKKFNINAVRNSHYPNHPKVYDLFDKLGFWVIDEADLETHGVQEPFNRHTNLEAEYPDTKNKLYDVNAHYLSDNPEYEVAYLDRASQLVLRDVNHPSIIIWSLGNEACYGRNHKAMYKLIKQLDPTRLVHYEGDLNALSADIFSFMYPTFEIMERWRKNHTDENGKFEKPLILCEYGHAMGNGPGSLKEYQELFYKEKFYQGGFIWEWANHGIEFEDVSTADGKLHKAYAYGGDFKEEVHDGVFIMDGLCNSEHNPTPGLVEYKKVIEPVHIKIAHGSVTITNKHDFITTDHLLFIDKDTGKTIDVPSLKPEESVTIPSDTTYVVAVLKDDAGVLKAGHEIAWGQAELPLKVPDFVTETAEKAAKINDGKRYVSVESSGLHFILDKLLGKIESLKVKGKEISSKFEGSSITFWRPPTNNDEPRDFKNWKKYNIDLMKQNIHGVSVEKGSNGSLAVVTVNSRISPVVFYYGFETVQKYTIFANKINLNTSMKLTGEYQPPDFPRVGYEFWLGDSYESFEWLGRGPGESYPDKKESQRFGLYDSKDVEEFVYDYPQENGNHTDTHFLNIKFEGAGKLSIFQKEKPFNFKISDEYGVDEAAHACDVKRYGRHYLRLDHAIHGVGSEACGPAVLDQYRLKAQDFNFEFDLAFE
notes: expressed in K. lactis MW190-9B (lac4-8); crude cell-free extract
  Km: 1500 µM
